Experimental data published in the supplement of paper PMC9112550, “Optimization of the antimicrobial peptide Bac7 by deep mutational scanning” (BMC Biology, 2022).

tested on: Escherichia coli TOP10; test: shrunken log2 fold change of peptide-encoding DNA abundance (4.5 h post-induction vs induction); higher = less antimicrobial activity (less host growth inhibition); details: time post-induction: 4.5 h; library: site-saturation at positions 5, 18, 19, 20
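Note: peptides expressed intracellularly from a pBAD plasmid library in pooled LB shake-flask culture, induced with 0.3% L-arabinose, DNA abundance read by NGS, three biological replicates, DESeq2 with apeglm shrinkage.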

Sequence	shrunken log2 fold change
RRIRNRPPRLPRPRPRPKGPPRP	0.0947
RRIRYRPPRLPRPRPRPTGYPRP	-1.16
RRIRARPPRLPRPRPRPMEEPRP	-0.0115
RRIRARPPRLPRPRPRPMGAPRP	0.572
RRIRSRPPRLPRPRPRPRHWPRP	0.618
RRIRGRPPRLPRPRPRPFKTPRP	-0.341
RRIRTRPPRLPRPRPRPNPSPRP	-0.128
RRIRNRPPRLPRPRPRPAVRPRP	0.2
RRIRNRPPRLPRPRPRPKCGPRP	-0.0686
RRIRQRPPRLPRPRPRPNMQPRP	-0.619
RRIRNRPPRLPRPRPRPDWLPRP	0.156
RRIRCRPPRLPRPRPRPENFPRP	-0.32
RRIRPRPPRLPRPRPRPYNLPRP	-0.708
RRIRMRPPRLPRPRPRPGVYPRP	0.104
RRIRVRPPRLPRPRPRPVCWPRP	0.472
RRIRHRPPRLPRPRPRPPCDPRP	-0.22
RRIRYRPPRLPRPRPRPVPAPRP	-0.156
RRIRIRPPRLPRPRPRPKWFPRP	-0.69
RRIRQRPPRLPRPRPRPNEHPRP	-0.0963
RRIRCRPPRLPRPRPRPQVLPRP	-0.0248
RRIRIRPPRLPRPRPRPQIVPRP	-0.167
RRIRLRPPRLPRPRPRPWPYPRP	-0.127
RRIRYRPPRLPRPRPRPEHYPRP	-0.126
RRIRFRPPRLPRPRPRPGRVPRP	0.787
RRIRSRPPRLPRPRPRPFRYPRP	-0.822

Sequence	shrunken log2 fold change
RRIRLRPPRLPRPRPRPGWNPRP	0.000784
RRIRFRPPRLPRPRPRPPGAPRP	0.847
RRIRDRPPRLPRPRPRPRMCPRP	0.0171
RRIRIRPPRLPRPRPRPLENPRP	-0.309
RRIRVRPPRLPRPRPRPDKFPRP	0.0677
RRIRDRPPRLPRPRPRPVIMPRP	-0.381
RRIRVRPPRLPRPRPRPVSQPRP	0.051
RRIRGRPPRLPRPRPRPWMRPRP	0.444
RRIRKRPPRLPRPRPRPQDVPRP	-0.0018
RRIRIRPPRLPRPRPRPVNPPRP	1.75
RRIRRRPPRLPRPRPRPCVYPRP	-0.42
RRIRLRPPRLPRPRPRPAQWPRP	-0.0397
RRIRTRPPRLPRPRPRPLIPPRP	-0.106
RRIRKRPPRLPRPRPRPSSEPRP	0.2
RRIRARPPRLPRPRPRPSYPPRP	-0.312
RRIRTRPPRLPRPRPRPNWYPRP	-0.382
RRIRFRPPRLPRPRPRPPHTPRP	0.126
RRIRERPPRLPRPRPRPCNIPRP	-0.0405
RRIRPRPPRLPRPRPRPKMLPRP	-0.222
RRIRGRPPRLPRPRPRPFRAPRP	0.209
RRIRLRPPRLPRPRPRPTKAPRP	0.0258
RRIRSRPPRLPRPRPRPGSDPRP	0.0314
RRIRLRPPRLPRPRPRPYSRPRP	0.0264
RRIRIRPPRLPRPRPRPWAGPRP	-0.291
RRIRMRPPRLPRPRPRPASNPRP	0.421

Sequence	shrunken log2 fold change
RRIRYRPPRLPRPRPRPIPHPRP	0.046
RRIRRRPPRLPRPRPRPSICPRP	0.00217
RRIRIRPPRLPRPRPRPCVFPRP	-1.22
RRIRTRPPRLPRPRPRPCQNPRP	0.031
RRIRLRPPRLPRPRPRPHLYPRP	0.61
RRIRHRPPRLPRPRPRPAIIPRP	-0.113
RRIRYRPPRLPRPRPRPDTCPRP	-0.233
RRIRTRPPRLPRPRPRPIKGPRP	-0.331
RRIRSRPPRLPRPRPRPTPPPRP	0.43
RRIRIRPPRLPRPRPRPDSMPRP	-0.00884
RRIRERPPRLPRPRPRPYEVPRP	-0.448
RRIRIRPPRLPRPRPRPGTLPRP	0.0164
RRIRWRPPRLPRPRPRPAWPPRP	0.558
RRIRPRPPRLPRPRPRPYRQPRP	-0.0384
RRIRGRPPRLPRPRPRPWLRPRP	0.306
RRIRGRPPRLPRPRPRPLNYPRP	0.131
RRIRFRPPRLPRPRPRPMICPRP	-0.303
RRIRQRPPRLPRPRPRPEYYPRP	-0.306
RRIRERPPRLPRPRPRPWYDPRP	-0.392
RRIRIRPPRLPRPRPRPPEDPRP	0.324
RRIRDRPPRLPRPRPRPAANPRP	0.273
RRIRPRPPRLPRPRPRPDTVPRP	-0.207
RRIRLRPPRLPRPRPRPKPTPRP	0.15
RRIRVRPPRLPRPRPRPDDKPRP	-0.446
RRIRIRPPRLPRPRPRPGPRPRP	0.358
